Our source for the condensation ratio +cAMP/-cAMP and percent of protein in condensates (150 mM salt, with cAMP) values is paper PMC10491619.

The target of the experiment is Exchange Protein Activated by cAMP 1, purified recombinant wild type. As to the kind of experiment: phase separation measured by centrifugation and A280 of the cleared supernatant; purified protein alone, with 30 uM cAMP; 5-25 uM protein at 50-250 mM NaCl, 25 mM Tris-HCl pH 8.8, 5 mM MgCl2; 20 °C, 15 min; 16,900 x g, 30 min.

Exchange Protein Activated by cAMP 1, purified recombinant wild type, sequence (O95398 whole entry): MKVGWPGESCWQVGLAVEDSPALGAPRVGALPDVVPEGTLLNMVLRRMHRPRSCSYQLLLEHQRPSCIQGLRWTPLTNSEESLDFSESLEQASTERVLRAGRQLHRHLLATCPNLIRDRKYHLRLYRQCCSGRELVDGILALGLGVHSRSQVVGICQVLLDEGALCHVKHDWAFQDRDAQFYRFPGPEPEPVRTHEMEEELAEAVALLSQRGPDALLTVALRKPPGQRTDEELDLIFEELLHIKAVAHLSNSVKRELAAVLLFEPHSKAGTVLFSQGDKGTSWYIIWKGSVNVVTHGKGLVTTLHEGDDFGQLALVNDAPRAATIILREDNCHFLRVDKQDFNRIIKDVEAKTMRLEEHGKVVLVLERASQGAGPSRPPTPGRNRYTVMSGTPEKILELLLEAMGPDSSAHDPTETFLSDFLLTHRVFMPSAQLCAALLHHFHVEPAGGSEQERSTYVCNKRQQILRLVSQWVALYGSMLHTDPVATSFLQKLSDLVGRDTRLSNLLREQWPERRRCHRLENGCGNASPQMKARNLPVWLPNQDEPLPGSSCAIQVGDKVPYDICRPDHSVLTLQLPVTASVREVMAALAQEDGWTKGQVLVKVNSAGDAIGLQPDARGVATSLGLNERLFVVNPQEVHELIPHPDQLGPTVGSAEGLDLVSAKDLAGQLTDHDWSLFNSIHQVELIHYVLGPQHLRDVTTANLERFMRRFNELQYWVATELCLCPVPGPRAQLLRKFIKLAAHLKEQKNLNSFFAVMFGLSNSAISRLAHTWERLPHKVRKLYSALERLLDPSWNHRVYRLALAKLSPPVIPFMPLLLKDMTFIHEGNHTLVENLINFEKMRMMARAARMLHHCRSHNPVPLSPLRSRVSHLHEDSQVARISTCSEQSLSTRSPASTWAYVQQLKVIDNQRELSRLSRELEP

With “Exchange Protein Activated by cAMP 1, purified recombinant wild type (natural protein)”, the condensation ratio +cAMP/-cAMP at 150 mM salt was 2.5 and the percent of protein in condensates (150 mM salt, with cAMP) worked out at 50%.
